Laboratory results from US20230250154A1 (CYTONICS, published 2023).

T1: ADAMTS4 (human, UniProt O75173 213-685, limits assumed)
T1 sequence (looked up): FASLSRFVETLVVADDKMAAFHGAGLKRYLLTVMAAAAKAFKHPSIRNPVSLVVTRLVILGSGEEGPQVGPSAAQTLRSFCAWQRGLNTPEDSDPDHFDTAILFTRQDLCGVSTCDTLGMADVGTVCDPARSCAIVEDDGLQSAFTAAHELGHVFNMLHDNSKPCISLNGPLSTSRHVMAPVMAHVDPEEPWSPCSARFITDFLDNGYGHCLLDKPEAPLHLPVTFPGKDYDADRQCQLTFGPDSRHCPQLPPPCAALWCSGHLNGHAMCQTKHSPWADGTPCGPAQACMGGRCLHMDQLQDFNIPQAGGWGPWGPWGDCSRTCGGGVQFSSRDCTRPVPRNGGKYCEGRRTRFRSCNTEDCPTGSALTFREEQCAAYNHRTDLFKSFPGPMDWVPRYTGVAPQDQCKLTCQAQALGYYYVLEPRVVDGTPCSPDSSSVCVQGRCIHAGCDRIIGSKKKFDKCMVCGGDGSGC

T2: ADAMTS5 (human, UniProt Q9UNA0 262-622, limits assumed)
T2 sequence (looked up): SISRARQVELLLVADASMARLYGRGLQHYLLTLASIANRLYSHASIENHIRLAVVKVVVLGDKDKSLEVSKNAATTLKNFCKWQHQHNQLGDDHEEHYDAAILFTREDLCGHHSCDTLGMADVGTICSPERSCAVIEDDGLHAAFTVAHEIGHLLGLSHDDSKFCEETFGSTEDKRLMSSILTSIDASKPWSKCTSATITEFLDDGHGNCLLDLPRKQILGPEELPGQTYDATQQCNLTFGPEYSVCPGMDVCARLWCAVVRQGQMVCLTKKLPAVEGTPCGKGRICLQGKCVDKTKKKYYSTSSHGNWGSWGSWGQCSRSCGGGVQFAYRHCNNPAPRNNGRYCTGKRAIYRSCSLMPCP


Columns and labels:
Assay in all cases: cell-based or functional assay
ADAMTS4 = target: T1, ADAMTS4
MMP13 = MMP13 (human, UniProt P45452 104-471, limits assumed)
ADAMTS5 = target: T2, ADAMTS5

| Protease Inhibition (% of WT) (ADAMTS4) | Protease Inhibition (% of WT) (MMP13) | Protease Inhibition (% of WT) (ADAMTS5) | Binder |
| --- | --- | --- | --- |
| 101 % of WT | 1 % of WT | 485 % of WT | Variant A2M, bait region SEQ ID NO 89 (other) SVSGKPQYMVLVPSLLHTETTEKGCVLLSYLNETVTVSASLESVRGNRSLFTDLEAENDVLHCVAFAVPKSSSNEEVMFLTVQVKGPTQEFKKRTTVMVKNEDSLVFVQTDKSIYKPGQTVKFRVVSMDENFHPLNELIPLVYIQDPKGNRIAQWQSFQLEGGLKQFSFPLSSEPFQGSYKVVVQKKSGGRTEHPFTVEEFVLPKFEVQVTVPKIITILEEEMNVSVCGLYTYGKPVPGHVTVSICRKYSDASDCHGEDSQAFCEKFSGQLNSHGCFYQQVKTKVFQLKRKEYEMKLHTEAQIQEEGTVVELTGRQSSEITRTITKLSFVKVDSHFRQGIPFFGQVRLVDGKGVPIPNKVIFIRGNEANYYSNATTDEHGLVQFSINTTNVMGTSLTVRVNYKDRSPCYGYQWVSEEHEEAHHTAYLVFSPSKSFVHLEPMSHELPCGHTQTVQAHYILNGGTLLGLKKLSFYYLIMAKGGIVRTGTHGLLVKQEDMKGHFSISIPVKSDIAPVARLLIYAVLPTGDVIGDSAKYDVENCLANKVDLSFSPSQSLPASHAHLRVTAAPQSVCALRAVDQSVLLMKPDAELSASSVYNLLPEKDLTGFPGPLNDQDDEDCINRHNVYINGITYTPVSSTNEKDMYSFLEDMGLKAFTNSKIRKPKMCPQLEQYEMHGPEGLRVGKEEEGLGSFYESDVMGRGHARLVHVEEPHTKLLRKYFPETWIWDLVVVNSAGVAEVGVTVPDTITEWKAGAFCLSEDAGLGISSTASLRAFQPFFVELTMPYSVIRGEAFTLKATVLNYLPKCIRVSVQLEASPAFLAVPVEKEQAPHCICANGRQTVSWAVTPKSLGNVNFTVSAEALESQELCGTEVPSVPEHGRKDTVIKPLLVEPEGLEKETTFNSLLCPSGGEVSEELSLKLPPNVVEESARASVSVLGDILGSAMQNTQNLLQMPYGCGEQNMVLFAPNIYVLDYLNETQQLTPEIKSKAIGYLNTGYQRQLNYKHYDGSYSTFGERYGRNQGNTWLTAFVLKTFAQARAYIFIDEAHITQALIWLSQRQKDNGCFRSSGSLLNNAIKGGVEDEVTLSAYITIALLEIPLTVTHPVVRNALFCLESAWKTAQEGDHGSHVYTKALLAYAFALAGNQDKRKEVLKSLNEEAVKKDNSVHWERPQKPKAPVGHFYEPQAPSAEVEMTSYVLLAYLTAQPAPTSEDLTSATNIVKWITKQQNAQGGFSSTQDTVVALHALSKYGAATFTRTGKAAQVTIQSSGTFSSKFQVDNNNRLLLQQVSLPELPGEYSMKVTGEGCVYLQTSLKYNILPEKEEFPFALGVQTLPQTCDEPKAHTSFQISLSVSYTGSRSASNMAIVDVKMVSGFIPLKPTVKMLERSNHVSRTEVSSNHVLIYLDKVSNQTLSLFFTVLQDVPVRDLKPAIVKVYDYYETDEFAIAEYNAPCSKDLGNADYKDDDDKGASHHHHHH |
| 121 % of WT | 173 % of WT | 395 % of WT | Variant A2M, bait region SEQ ID NO 94 (other) SVSGKPQYMVLVPSLLHTETTEKGCVLLSYLNETVTVSASLESVRGNRSLFTDLEAENDVLHCVAFAVPKSSSNEEVMFLTVQVKGPTQEFKKRTTVMVKNEDSLVFVQTDKSIYKPGQTVKFRVVSMDENFHPLNELIPLVYIQDPKGNRIAQWQSFQLEGGLKQFSFPLSSEPFQGSYKVVVQKKSGGRTEHPFTVEEFVLPKFEVQVTVPKIITILEEEMNVSVCGLYTYGKPVPGHVTVSICRKYSDASDCHGEDSQAFCEKFSGQLNSHGCFYQQVKTKVFQLKRKEYEMKLHTEAQIQEEGTVVELTGRQSSEITRTITKLSFVKVDSHFRQGIPFFGQVRLVDGKGVPIPNKVIFIRGNEANYYSNATTDEHGLVQFSINTTNVMGTSLTVRVNYKDRSPCYGYQWVSEEHEEAHHTAYLVFSPSKSFVHLEPMSHELPCGHTQTVQAHYILNGGTLLGLKKLSFYYLIMAKGGIVRTGTHGLLVKQEDMKGHFSISIPVKSDIAPVARLLIYAVLPTGDVIGDSAKYDVENCLANKVDLSFSPSQSLPASHAHLRVTAAPQSVCALRAVDQSVLLMKPDAELSASSVYNLLPEKDLTGFPGPLNDQDDEDCINRHNVYINGITYTPVSSTNEKDMYSFLEDMGLKAFTNSKIRKPKMCPQLEQYEMHGPEGLRVGTEGEARGSFYESDVMGRGHARLVHVEEPHTKLLRKYFPETWIWDLVVVNSAGVAEVGVTVPDTITEWKAGAFCLSEDAGLGISSTASLRAFQPFFVELTMPYSVIRGEAFTLKATVLNYLPKCIRVSVQLEASPAFLAVPVEKEQAPHCICANGRQTVSWAVTPKSLGNVNFTVSAEALESQELCGTEVPSVPEHGRKDTVIKPLLVEPEGLEKETTFNSLLCPSGGEVSEELSLKLPPNVVEESARASVSVLGDILGSAMQNTQNLLQMPYGCGEQNMVLFAPNIYVLDYLNETQQLTPEIKSKAIGYLNTGYQRQLNYKHYDGSYSTFGERYGRNQGNTWLTAFVLKTFAQARAYIFIDEAHITQALIWLSQRQKDNGCFRSSGSLLNNAIKGGVEDEVTLSAYITIALLEIPLTVTHPVVRNALFCLESAWKTAQEGDHGSHVYTKALLAYAFALAGNQDKRKEVLKSLNEEAVKKDNSVHWERPQKPKAPVGHFYEPQAPSAEVEMTSYVLLAYLTAQPAPTSEDLTSATNIVKWITKQQNAQGGFSSTQDTVVALHALSKYGAATFTRTGKAAQVTIQSSGTFSSKFQVDNNNRLLLQQVSLPELPGEYSMKVTGEGCVYLQTSLKYNILPEKEEFPFALGVQTLPQTCDEPKAHTSFQISLSVSYTGSRSASNMAIVDVKMVSGFIPLKPTVKMLERSNHVSRTEVSSNHVLIYLDKVSNQTLSLFFTVLQDVPVRDLKPAIVKVYDYYETDEFAIAEYNAPCSKDLGNADYKDDDDKGASHHHHHH |
| 27 % of WT | 119 % of WT | 66 % of WT | Variant A2M, bait region SEQ ID NO 93 (other) SVSGKPQYMVLVPSLLHTETTEKGCVLLSYLNETVTVSASLESVRGNRSLFTDLEAENDVLHCVAFAVPKSSSNEEVMFLTVQVKGPTQEFKKRTTVMVKNEDSLVFVQTDKSIYKPGQTVKFRVVSMDENFHPLNELIPLVYIQDPKGNRIAQWQSFQLEGGLKQFSFPLSSEPFQGSYKVVVQKKSGGRTEHPFTVEEFVLPKFEVQVTVPKIITILEEEMNVSVCGLYTYGKPVPGHVTVSICRKYSDASDCHGEDSQAFCEKFSGQLNSHGCFYQQVKTKVFQLKRKEYEMKLHTEAQIQEEGTVVELTGRQSSEITRTITKLSFVKVDSHFRQGIPFFGQVRLVDGKGVPIPNKVIFIRGNEANYYSNATTDEHGLVQFSINTTNVMGTSLTVRVNYKDRSPCYGYQWVSEEHEEAHHTAYLVFSPSKSFVHLEPMSHELPCGHTQTVQAHYILNGGTLLGLKKLSFYYLIMAKGGIVRTGTHGLLVKQEDMKGHFSISIPVKSDIAPVARLLIYAVLPTGDVIGDSAKYDVENCLANKVDLSFSPSQSLPASHAHLRVTAAPQSVCALRAVDQSVLLMKPDAELSASSVYNLLPEKDLTGFPGPLNDQDDEDCINRHNVYINGITYTPVSSTNEKDMYSFLEDMGLKAFTNSKIRKPKMCPQLEQYEMHGPEGLRVGVSQELGQRFYESDVMGRGHARLVHVEEPHTKLLRKYFPETWIWDLVVVNSAGVAEVGVTVPDTITEWKAGAFCLSEDAGLGISSTASLRAFQPFFVELTMPYSVIRGEAFTLKATVLNYLPKCIRVSVQLEASPAFLAVPVEKEQAPHCICANGRQTVSWAVTPKSLGNVNFTVSAEALESQELCGTEVPSVPEHGRKDTVIKPLLVEPEGLEKETTFNSLLCPSGGEVSEELSLKLPPNVVEESARASVSVLGDILGSAMQNTQNLLQMPYGCGEQNMVLFAPNIYVLDYLNETQQLTPEIKSKAIGYLNTGYQRQLNYKHYDGSYSTFGERYGRNQGNTWLTAFVLKTFAQARAYIFIDEAHITQALIWLSQRQKDNGCFRSSGSLLNNAIKGGVEDEVTLSAYITIALLEIPLTVTHPVVRNALFCLESAWKTAQEGDHGSHVYTKALLAYAFALAGNQDKRKEVLKSLNEEAVKKDNSVHWERPQKPKAPVGHFYEPQAPSAEVEMTSYVLLAYLTAQPAPTSEDLTSATNIVKWITKQQNAQGGFSSTQDTVVALHALSKYGAATFTRTGKAAQVTIQSSGTFSSKFQVDNNNRLLLQQVSLPELPGEYSMKVTGEGCVYLQTSLKYNILPEKEEFPFALGVQTLPQTCDEPKAHTSFQISLSVSYTGSRSASNMAIVDVKMVSGFIPLKPTVKMLERSNHVSRTEVSSNHVLIYLDKVSNQTLSLFFTVLQDVPVRDLKPAIVKVYDYYETDEFAIAEYNAPCSKDLGNADYKDDDDKGASHHHHHH |
